The record followed here is publication doi:10.1101/2021.02.17.431740 (bioRxiv, 2021).

For test [1], the target named is recombinant full-length human Grb2 (human, UniProt P62993-1 1-217). Description: ITC.
For test [2], the target named is recombinant full-length human CrkII (human, UniProt P46108-1 1-304). Description: ITC.

Non-standard residues stand in square brackets, D forms with d. pY = N[C@@H](Cc1ccc(OP(=O)(O)O)cc1)C(=O)O

recombinant full-length human CrkII, sequence (P46108 whole entry): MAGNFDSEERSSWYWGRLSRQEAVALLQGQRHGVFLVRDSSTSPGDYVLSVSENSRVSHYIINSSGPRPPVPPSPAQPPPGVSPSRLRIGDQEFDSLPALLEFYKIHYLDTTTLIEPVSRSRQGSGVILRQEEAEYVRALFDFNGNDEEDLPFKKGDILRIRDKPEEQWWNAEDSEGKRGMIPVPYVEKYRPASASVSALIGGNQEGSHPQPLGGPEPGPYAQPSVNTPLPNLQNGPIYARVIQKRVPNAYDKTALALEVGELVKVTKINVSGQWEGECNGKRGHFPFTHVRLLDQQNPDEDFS
recombinant full-length human Grb2, sequence (P62993 whole entry): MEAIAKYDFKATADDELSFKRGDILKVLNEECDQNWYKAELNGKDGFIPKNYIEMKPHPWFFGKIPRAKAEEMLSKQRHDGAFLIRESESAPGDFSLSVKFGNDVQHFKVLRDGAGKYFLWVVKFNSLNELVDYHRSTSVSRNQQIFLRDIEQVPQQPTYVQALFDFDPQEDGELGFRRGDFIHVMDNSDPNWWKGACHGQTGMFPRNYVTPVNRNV

B1: PEAK3 phosphorylated peptide Ac-T(pY)SNLGQ-NH2 (peptide)
peptide: Ac-T[pY]SNLGQ-NH2
Turning to B1, the “stoichiometry N” value in test [1] worked out at 1. Further, in test [2], the Kd amounted to 7.8 µM and the “stoichiometry N” value came to 1.
